Test results as given in publication doi:10.1101/2024.03.29.587195 (bioRxiv, 2024).
Several values for one entry are separate records, joined by “and”; a condition that tells them apart may be missing. Identical values can stand only once.

Target: the molecule itself
Test: cryo-EM structure

B1: CoaXMtb, untagged, recombinant (cryo-EM sample) (natural protein)
chain: MLLAIDVRNTHTVVGLLSGMKEHAKVVQQWRIRTESEVTADELALTIDGLIGEDSERLTGTAALSTVPSVLHEVRIMLDQYWPSVPHVLIEPGVRTGIPLLVDNPKEVGADRIVNCLAAYDRFRKAAIVVDFGSSICVDVVSAKGEFLGGAIAPGVQVSSDAAAARSAALRRVELARPRSVVGKNTVECMQAGAVFGFAGLVDGLVGRIREDVSGFSVDHDVAIVATGHTAPLLLPELHTVDHYDQHLTLQGLRLVFERNLEVQRGRLKTAR
stoichiometry N: 6 and 4
